# Data: patent publication US20210017289A1 (AbbVie / Abbott, published 2021)
# T1: recombinant soluble human OX40 ECD (residues 1-216) (human, UniProt P43489 29-216)
# T1 construct: Purchased from Creative Biomart and further purified by gel filtration; also called recombinant extracellular domain of human OX40
# T1 sequence: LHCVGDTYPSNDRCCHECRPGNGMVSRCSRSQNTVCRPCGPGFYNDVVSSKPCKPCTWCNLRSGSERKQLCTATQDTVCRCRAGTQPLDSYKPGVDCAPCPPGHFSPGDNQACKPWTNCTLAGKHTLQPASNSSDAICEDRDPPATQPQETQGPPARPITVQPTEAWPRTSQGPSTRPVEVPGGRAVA
# T2: human OX40-FC (R&D Systems) (human, UniProt P43489 29-216)
# T2 construct: Purchased reagent; also called recombinant human OX40; not shown: Fc part of the purchased fusion
# T2 sequence: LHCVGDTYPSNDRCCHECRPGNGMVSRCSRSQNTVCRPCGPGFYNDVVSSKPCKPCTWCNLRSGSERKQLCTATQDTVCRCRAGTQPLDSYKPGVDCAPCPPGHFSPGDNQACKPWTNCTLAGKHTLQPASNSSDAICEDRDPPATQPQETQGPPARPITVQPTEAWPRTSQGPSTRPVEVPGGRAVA
# T3: human OX40 expressed on cells (human, UniProt P43489 29-277)
# T3 construct: also called cell-surface human OX40; Jurkat-NF-κB-huOX40
# T3 sequence: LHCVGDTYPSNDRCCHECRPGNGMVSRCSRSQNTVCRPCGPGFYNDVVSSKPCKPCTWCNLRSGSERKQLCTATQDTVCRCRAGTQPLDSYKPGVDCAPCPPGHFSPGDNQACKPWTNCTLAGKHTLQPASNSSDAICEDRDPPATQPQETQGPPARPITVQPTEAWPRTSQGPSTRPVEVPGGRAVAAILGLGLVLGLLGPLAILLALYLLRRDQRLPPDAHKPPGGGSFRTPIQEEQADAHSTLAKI
# T4: Cyno OX40-Fc fusion (cynomolgus monkey, UniProt P43489 29-214 (human entry), limits assumed)
# T4 construct: also called recombinant cynomolgus (cyno) OX40; not shown: Fc part of the fusion
# T4 chain: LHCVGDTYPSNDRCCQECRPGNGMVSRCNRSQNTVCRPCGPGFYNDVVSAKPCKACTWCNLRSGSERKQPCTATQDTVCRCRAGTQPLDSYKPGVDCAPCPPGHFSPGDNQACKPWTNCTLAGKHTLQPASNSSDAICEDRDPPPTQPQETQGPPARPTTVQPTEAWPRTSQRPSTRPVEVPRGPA
# B1: Hu3738 (antibody, V domains shown)
# VH: EVQLVESGGGLVQPGGSLRLSCAASGFTFSRYGMSWVRQAPGKGLELVATINSNGGRTYYPDSVKGRFTISRDNAKNSLYLQMNSLRAEDTAVYYCAREGITTAYAMDYWGQGTTVTVSS
# VL: DIVMTQSPDSLAVSLGERATINCKASQSVDYDGDSYMHWYQQKPGQPPKLLIYAASILESGVPDRFSGSGSGTDFTLTISSLQAEDVAVYYCQQSNEDPRTFGGGTKVEIKR
# notes: Humanized antibody; also called exemplary anti-OX40 antibody Hu3738; Hu3738 VH.1b / Hu3738 VL.1
# How the values were obtained:
# [1] = molecular target: T1, recombinant soluble human OX40 ECD …; assay: SPR (Biacore T200, 25 °C), antibody captured by anti-Fc, OX40 ECD as analyte
# Procedure: The binding kinetics of an anti-OX40 antibody to recombinant soluble OX40 ECD (extracellular domain) were determined by surface plasmon resonance-based measurements made on a Biacore T200 instrument (GE Healthcare) at 25° C. using an anti-Fc capture assay approach. Recombinant extracellular domains (ECDs) of human OX40 (residues 1-216) and rhesus macaque OX40 (residues 28-214) were purchased (Creative Biomart) and further purified by gel filtration using Superdex200 (GE Healthcare) in 10 mM 4-(2-hydroxyethyl)-1-piperazineethanesulfonic acid (HEPES), pH 7.4, 150 mM NaCl, 3 mM ethylenediaminetetraacetic acid (EDTA). Rhesus macaque (Macaca mulatta) OX40 is identical to cynomolgus monkey (Macaca fascicularis) OX40 (SEQ ID NO:2) at the amino acid level. Chip preparation and binding kinetic measurements were made in the assay buffer HBS-EP+(10 mM HEPES, pH 7.4, 150 mM NaCl, 3 mM EDTA, 0.05% Tween 20). For anti-Fc capture chip preparation, approximately 2000 Resonance Units (RU) of goat anti-human IgG Fc polyclonal antibody (Thermo Fisher Scientific Inc.), diluted to 25 μg/mL in 10 mM sodium acetate (pH 4.5), was directly immobilized across a CMS biosensor chip using a standard amine coupling kit according to manufacturer's instructions and procedures. Unreacted moieties on the biosensor surface were blocked with ethanolamine. For binding kinetics measurements each assay cycle consisted of the following steps: 1) capture of test anti-OX40 antibody on test surface only; 2) analyte injection (OX40 ECD or buffer only) over both reference and test surface, 240 μL at 80 μL/min, after which the dissociation was monitored for 900 seconds at 80 μL/min; 3) regeneration of capture surface by 10 mM Glycine-HCl, pH 1.5 injections over both reference and test surface. During the assay, all measurements were referenced against the capture surface alone (i.e., with no captured test antibody) and buffer-only injections were used for double referencing. OX40 injections ranged in concentration from 900 nM or 300 nM to 11.11 nM in a randomized 9- or 3-fold dilution series, respectively. Data were processed and fitted globally to a 1:1 binding model using Biacore T200 Evaluation software to determine the binding kinetic rate constants, kₐ (M⁻¹s⁻¹) and kd (s¹), and the equilibrium dissociation constant KD (M).
# [2] = molecular target: T2, human OX40-FC (R&D Systems); assay: ELISA on plates coated with human OX40-Fc
# Procedure: Immunolon 4×HB 96-well plates (Thermo Scientific) were coated with 1 μg/mL of human OX40-FC (R&D Systems) at 4° C. overnight. Plates were blocked with phosphate-buffered saline (PBS) containing 1% bovine serum albumin (BSA) for 30 minutes at room temperature and then washed three times with PBST (PBS with 0.1% Tween 20) using a plate washer. OX40-coated plates were then incubated with indicated concentrations of test antibody at room temperature for one hour. Plates were washed four times with PBST and then incubated for 1 hour at room temperature with 100 μL of goat anti-human Fab fragment specific-Biotin (Jackson ImmunoResearch) prepared to a dilution of 1:5000 in PBS containing 1% BSA. Plates were then washed five times in PBST and 100 μL of a 1:1000 dilution of streptavidin-horseradish peroxidase (HRP) (Thermo Scientific) was added to each well and incubated for 30 minutes at room temperature. Plates were subsequently washed five times in PBST and 100 μL of TMB One component (Surmodics) were added to each well and incubated at room temperature (RT) until color developed (approximately 5-10 minutes). Optical density (OD) was read at 650 nm (Molecular Devices Spectromax190).
# [3] = molecular target: T3, human OX40 expressed on cells; assay: competition by flow cytometry on Jurkat-NF-κB-huOX40 cells; competitor: ALEXA FLUOR 647-labeled Hu3738 at 2 µg/mL
# Procedure: Analysis was performed by flow cytometry.
# Cyno OX40-Fc fusion = molecular target: T4, Cyno OX40-Fc fusion; assay: ELISA on plates coated with Cyno OX40-Fc fusion
# Procedure: Immunolon 4×HB 96-well plates (Thermo Scientific) were coated with 1 μg/mL of Cyno OX40-Fc fusion at 4° C. overnight. Plates were blocked with PBS containing 1% bovine serum albumin (BSA) for 30 minutes at RT and then washed three times with PBST (PBS with 0.1% Tween 20). OX40-coated plates were then incubated with indicated concentrations of anti-OX40 antibody at room temperature for one hour. Plates were washed four times with PBST and then incubated for 1 hour at room temperature with 100 μL of goat anti-human FAB fragment specific-Biotin (Jackson ImmunoResearch) prepared to a dilution of 1:5000 in PBS containing 1% BSA. Plates were then washed five times in PBST and 100 μL of a 1:1000 dilution of streptavidin-HRP (Thermo Scientific) was added to each well and incubated for 30 minutes at room temperature. Plates were then washed five times in PBST and 100 μL of TMB One component (Surmodics) were added to each well and incubated at room temperature until color developed (approximately 5-10 minutes). Optical density (OD) was read at 650 nm (Molecular Devices Spectromax190).
binder,measurement,setting,value
B1,Kd,[1],42 nM
same,koff,[1],0.042 s⁻¹
same,EC50,[2],0.044 nM
same,IC50 (read off the curve),[3],~1 mg/L
same,EC50,Cyno OX40-Fc fusion,0.039 nM
